Source: doi:10.1101/2025.06.13.659598 (bioRxiv, 2025)

Target: F-actin (rabbit skeletal muscle actin, polymerised) (rabbit, UniProt P68135 1-377)
Test: co-sedimentation

binding result: binds
B1: FHOD1 wild-type, full length (natural protein)
chain: MAGGEDRGDGEPVSVVTVRVQYLEDTDPFACANFPEPRRAPTCSLDGALPLGAQIPAVHRLLGAPLKLEDCALQVSPSGYYLDTELSLEEQREMLEGFYEEISKGRKPTLILRTQLSVRVNAILEKLYSSSGPELRRSLFSLKQIFQEDKDLVPEFVHSEGLSCLIRVGAAADHNYQSYILRALGQLMLFVDGMLGVVAHSDTIQWLYTLCASLSRLVVKTALKLLLVFVEYSENNAPLFIRAVNSVASTTGAPPWANLVSILEEKNGADPELLVYTVTLINKTLAALPDQDSFYDVTDALEQQGMEALVQRHLGTAGTDVDLRTQLVLYENALKLEDGDIEEAPGAGGRRERRKPSSEEGKRSRRSLEGGGCPARAPEPGPTGPASPVGPTSSTGPALLTGPASSPVGPPSGLQASVNLFPTISVAPSADTSSERSIYKARFLENVAAAETEKQVALAQGRAETLAGAMPNEAGGHPDARQLWDSPETAPAARTPQSPAPCVLLRAQRSLAPEPKEPLIPASPKAEPIWELPTRAPRLSIGDLDFSDLGEDEDQDMLNVESVEAGKDIPAPSPPLPLLSGVPPPPPLPPPPPIKGPFPPPPPLPLAAPLPHSVPDSSALPTKRKTVKLFWRELKLAGGHGVSASRFGPCATLWASLDPVSVDTARLEHLFESRAKEVLPSKKAGEGRRTMTTVLDPKRSNAINIGLTTLPPVHVIKAALLNFDEFAVSKDGIEKLLTMMPTEEERQKIEEAQLANPDIPLGPAENFLMTLASIGGLAARLQLWAFKLDYDSMEREIAEPLFDLKVGMEQLVQNATFRCILATLLAVGNFLNGSQSSGFELSYLEKVSEVKDTVRRQSLLHHLCSLVLQTRPESSDLYSEIPALTRCAKVDFEQLTENLGQLERRSRAAEESLRSLAKHELAPALRARLTHFLDQCARRVAMLRIVHRRVCNRFHAFLLYLGYTPQAAREVRIMQFCHTLREFALEYRTCRERVLQQQQKQATYRERNKTRGRMITETEKFSGVAGEAPSNPSVPVAVSSGPGRGDADSHASMKSLLTSRPEDTTHNRRSRGMVQSSSPIMPTVGPSTASPEEPPGSSLPSDTSDEIMDLLVQSVTKSSPRALAARERKRSRGNRKSLRRTLKSGLGDDLVQALGLSKGPGLEV
